B1: library; numbered along this chain (parent)
chain: MRKPRAAVGSGHRKQAASQEGRQKHAKNNSQAKPSACDGLARQPEEVVLQASVSSYHLFRDVAEVTAFRGSLLSWYDQEKRDLPWRRRAEDEMDLDRRAYAVWVSEVMLQQTQVATVINYYTGWMQKWPTLQDLASASLEEVNQLWAGLGYYSRGRRLQEGARKVVEELGGHMPRTAETLQQLLPGVGRYTAGAIASIAFGQATGVVDGNVARVLCRVRAIGADPSSTLVSQQLWGLAQQLVDPARPGDFNQAAMELGATVCTPQRPLCSQCPVESLCRARQRVEQEQLLASGSLSGSPDVEECAPNTGQCHLCLPPSEPWDQTLGVVNFPRKASRKPPREESSATCVLEQPGALGAQILLVQRPNSGLLAGLWEFPSVTWEPSEQLQRKALLQELQRWAGPLPATHLRHLGEVVHTFSHIKLTYQVYGLALEGQTPVTTVPPGARWLTQEEFHTAAVSTAMKKVFRVYQGQQPGTCMGSKRSQVSSPCSRKKPRMGQQVLDNFFRSHISTDAHSLNSAAQ

Variants of: B1
Experiment: 8OG:A repair function score (normalized; synonymous = 0, nonsense = -1) (normalized log-likelihood score); higher = more repair activity (WT-like)
Conditions: with 8OG:A DNA repair reporter (GFP) in HEK-293 MUTYH KO cells
Method in brief: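 Lentiviral MUTYH cDNA NNN codon-scan libraries in HEK-293 MUTYH knockout cells (10 pg/ml doxycycline) were co-transfected with an 8OG:A GFP repair reporter plus mCherry. At 72 h, viable mCherry+ cells were sorted into GFP+ (repair) and GFP− bins, three replicates per tile, then tile amplicons were sequenced. Per-tile Rosace fitness scores became a normalized repair function score anchored on synonymous and nonsense distributions. Synonymous medians were set to 0 and nonsense to -1; variants under 300 counts per million at the start were removed.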

8OG:A repair function score: each site, then its substitutions
Q252: Y -0.982, D -1.01, R -1.01, I -0.942, M -0.854, L -0.863, K -0.999, G -0.891, V -0.798, A -0.658, F -1.02, T -0.856, W -1.04, N -0.588, C -0.576, E -0.386, S -0.483, P -1, H -0.873
A245: N -0.0246, Q 0.0913, H -0.134, P -0.612, K -0.0553, L 0.157, T -0.0132, D 0.223, C -0.113, R -0.124, Y -0.107, F 0.00779, W -0.0373, M -0.146, E 0.644, V 0.000414, G 0.0269, S 0.0557, I -0.104
D249: V -0.579, C -0.396, W -0.851, N -0.673, T -0.459, E -0.208, H -0.28, R -0.663, Y -0.608, I -0.596, P -0.588, A -0.31, G -0.675, Q -0.428, K -0.584, S -0.402, F -0.75, M -0.419, L -0.649
V242: L -0.288, E -0.964, S -0.772, A -0.526, Q -0.763, R -0.886, W -1.01, D -0.978, K -0.949, T -0.488, M -0.625, H -0.806, G -0.916, Y -0.964, P -0.961, F -0.874, C -0.39, I 0.0144, N -0.576
D243: Q -0.829, H -0.31, N -0.739, V -0.767, L -0.818, S -0.358, I -0.858, M -0.753, K -0.914, F -0.786, Y -0.667, G -0.755, T -0.727, R -0.99, A -0.387, C -0.276, W -0.67, P -0.554, E -0.293
A253: L -1.02, I -1.02, R -1.01, P -1.02, C -0.853, D -1.03, Y -0.985, M -1.03, T -0.994, F -1.03, Q -1.02, K -1.02, G -0.438, S -0.559, H -1.03, W -0.975, V -1, E -1.02, N -1.01
A254: G -0.374, E -0.62, F 0.057, D -0.87, C -0.0862
L241: V -0.358, E -0.98, T -0.51, D -0.924, S -0.626, G -0.827, H -1.01, A -0.581, F -0.872, Q -0.948, K -1.01, P -0.994, W -0.384, I -0.264, M -0.522, N -0.946, Y -0.893, C -0.37, R -1.03
R246: K -0.495, M -0.559, W -0.645, N -0.471, T -0.728, G -0.845, I -0.836, D -0.657, Y -0.517, H -0.449, A -0.605, P -0.964, F -0.68, V -0.732, E -0.696, L -0.719, S -0.535, C -0.646, Q -0.476
A238: K -0.887, L -0.816, W -0.956, N -0.887, I -0.365, V 0.0238, P -1.01, D -0.714, E -0.688, F -0.858, M 0.0352, Y -0.881, G -0.603, S -0.0308, T -0.413, R -1.01, H -0.805, C -0.249, Q -0.254
N251: K -0.983, P -1.02, Q -0.901, D -0.947, F -1.03, G -0.951, V -0.84, I -0.889, H -0.943, C -0.884, E -1.02, W -0.879, S -0.903, A -0.847, L -0.938, R -1.02, T -0.798, Y -1.01, M -0.915
G236: Q 0.356, P -0.455, R 0.107, T -0.0456, V -0.0226, S 0.254, Y -0.152
P247: E -0.987, F -1.01, K -1.03, A -0.379, L -1.02, N -1, V -0.95, C -0.799, D -1.03, S -0.584, H -0.982, I -0.969, R -1, G -0.799, W -1.03, Y -1.04, T -0.856, M -0.978, Q -0.968
F250: L -0.595, H -0.485, W -0.258, C -0.435, N -0.903, P -1.03, V -0.797, T -0.65, G -0.867, K -1.03, Y 0.0779, E -1.03, I -0.896, M -0.607, Q -0.831, S -0.385, A -0.516, D -1.01, R -1.01
L237: M -0.32, Q -0.281, A -0.321, V -0.463, T -0.184, C -0.474, W -0.397, G -0.848, F -0.257, D -0.692, I 0.105, H -0.433, Y -0.0407, E -0.684, K -0.816, P -0.931, N -0.583, S -0.551, R -0.738
P244: C -0.39, S -0.232, A -0.238, N -0.467, R -0.145, I -0.574, V -0.427, E -0.105, Y -0.542, D -0.291, L -0.398, Q -0.604, W -0.457, G -0.385, T -0.234, H -0.418, K 0.065, F -0.422
Q239: K -0.0216, I -0.589, S -0.175, E -0.065, G -0.228, W -0.74, N 0.162, Y -0.309, M -0.146, T -0.143, H 0.289, L -0.403, V -0.529, P -0.953, D 0.103, A -0.104, F -0.526, R -0.232, C -0.184
Q240: D -0.979, V -0.936, F -0.939, A -0.971, W -1, E -0.919, H -0.94, R -0.97, P -1, K -0.932, S -0.945, L -0.948, C -1.01, M -0.867, I -0.959, N -0.999, T -0.972, G -1, Y -0.969
G248: C -0.885, K -0.801, N -0.871, Q -0.882, A -0.729, E -0.978, R -0.738, S -0.709, I -1.02, T -0.939, L -1.01, H -0.883, F -0.958, Y -0.996, P -0.995, W -0.937, D -0.876, V -0.998, M -0.879
